Experiment [1] concerns the target T1, corticotropin releasing factor 2 receptor.
T1 sequence (Q13324 whole entry, species assumed, looked up): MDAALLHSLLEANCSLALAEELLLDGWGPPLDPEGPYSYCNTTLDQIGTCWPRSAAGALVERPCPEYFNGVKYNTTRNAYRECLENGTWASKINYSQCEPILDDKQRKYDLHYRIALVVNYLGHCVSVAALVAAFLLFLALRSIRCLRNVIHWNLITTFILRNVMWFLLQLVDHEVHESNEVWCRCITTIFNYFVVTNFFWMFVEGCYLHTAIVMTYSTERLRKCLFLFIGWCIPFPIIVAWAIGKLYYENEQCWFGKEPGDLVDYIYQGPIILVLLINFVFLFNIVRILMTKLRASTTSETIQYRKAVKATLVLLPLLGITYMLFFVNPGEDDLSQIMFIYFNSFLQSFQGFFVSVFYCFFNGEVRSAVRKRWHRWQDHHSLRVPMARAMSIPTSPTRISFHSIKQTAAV
As to the kind of experiment: cell-based or functional assay.

The target of experiment [2] is corticotropin releasing factor 1 receptor. Description: cell-based or functional assay.

The values below come from patent US20030148958A1 (PROCTER AND GAMBLE, published 2003).

Ends that are not written are not given here.
For CRF1R Emax in this document: reference of the scale not given here.
For CRF2R Emax in this document: reference of the scale not given here.

B1: SEQ ID NO 92 (peptide)
peptide: SQEPPISLDLPTELLREVLEMTKADQLAQQAHSNRKIIDIA-NH2
Turning to B1, in experiment [1], the “CRF2R EC50” value amounted to 100 nM and the “CRF2R Emax” value was 15.8%. For the same molecule, in experiment [2], the “CRF1R EC50” value amounted to 100 nM and the “CRF1R Emax” value worked out at 4.6%.

B2: SEQ ID NO 96 (peptide)
peptide: SQEPPISLDLPFYLLREVLEMTKADQLAQQAHSNRKLLDIA-NH2
As for B2, in experiment [1], the “CRF2R EC50” value worked out at 100 nM and the “CRF2R Emax” value turned out to be 12.5%. Also, in experiment [2], the “CRF1R EC50” value worked out at 100 nM and the “CRF1R Emax” value turned out to be 16.3%.

B3: SEQ ID NO 105 (peptide)
peptide: SQEPPISLDLPTQLLREVLEMTKADQLAQQAHSNRKLLDIA-NH2
With B3, in experiment [1], the “CRF2R EC50” value worked out at 100 nM and the “CRF2R Emax” value came to 9.15%. Besides, in experiment [2], the “CRF1R EC50” value amounted to 100 nM and the “CRF1R Emax” value turned out to be 5.2%.

B4: SEQ ID NO 110 (peptide)
peptide: IVLSLDVPIGLLQILLEQAKQRAAREQATTNARILARV-NH2
Regarding B4, in experiment [1], the “CRF2R EC50” value turned out to be 11 nM and the “CRF2R Emax” value was 100%. Moreover, in experiment [2], the “CRF1R EC50” value was more than 100 nM and the “CRF1R Emax” value worked out at 9%.

B5: SEQ ID NO 93 (peptide)
peptide: SQEPPISLDLPIGLLREVLEMTKADQLAQQAHSNRKLLDIA-NH2
For the molecule B5, in experiment [1], the “CRF2R EC50” value came out at 100 nM and the “CRF2R Emax” value was determined as 6.4%. In experiment [2], the “CRF1R EC50” value was 100 nM and the “CRF1R Emax” value is 5%.

B6: SEQ ID NO 106 (peptide)
peptide: SQEPPISLDLPTYLLREVLEMTKADQLAQQAHSNRKLLDIA-NH2
For the molecule B6, in experiment [1], the “CRF2R EC50” value is 100 nM and the “CRF2R Emax” value was 6.1%. In experiment [2], the “CRF1R EC50” value is 100 nM and the “CRF1R Emax” value stood at 4.8%.

B7: SEQ ID NO 113 (peptide)
peptide: IVLSLDVPIGLLQILLEQERAEAAREQATTNARILARV-NH2
Take B7: in experiment [1], the “CRF2R EC50” value came out at 11.3 nM and the “CRF2R Emax” value turned out to be 98%. Besides, in experiment [2], the “CRF1R EC50” value was more than 100 nM and the “CRF1R Emax” value amounted to 4%.

B8: SEQ ID NO 98 (peptide)
peptide: SQEPPISLDLPTGLLREVLEMTKADQLAQQAHSNRKLLDIA-NH2
As to B8, in experiment [1], the “CRF2R EC50” value is 100 nM and the “CRF2R Emax” value is 5.5%. For the same molecule, in experiment [2], the “CRF1R EC50” value came to 100 nM and the “CRF1R Emax” value stood at 4%.

B9: SEQ ID NO 111 (peptide)
peptide: IVLSLDVPIGLLQILLEQERQRAAREQATTNARILARV-NH2
Consider B9, for which, in experiment [1], the “CRF2R EC50” value came out at 10.9 nM and the “CRF2R Emax” value stood at 99%. Besides, in experiment [2], the “CRF1R EC50” value is more than 100 nM and the “CRF1R Emax” value is 9%.

B10: SEQ ID NO 104 (peptide)
peptide: SQEPPISLDLPFHLLREVLEMTKADQLAQQAHSNRKLLDIA-NH2
On to B10, for which, in experiment [1], the “CRF2R EC50” value was 100 nM and the “CRF2R Emax” value was 4.5%. Moreover, in experiment [2], the “CRF1R EC50” value stood at 100 nM and the “CRF1R Emax” value turned out to be 11.1%.

B11: SEQ ID NO 109 (peptide)
peptide: IVLSLDVPIGLLQILLEQAKARAAREQATTNARILARV-NH2
Take B11: the “CRF2R EC50” value in experiment [1] was 11.8 nM. In experiment [2], the “CRF1R EC50” value came to 100 nM.

B12: SEQ ID NO 9 (peptide)
peptide: IVLSLDVPIGLLQILLEQARARAAREQATTQARILARV-NH2
Take B12: in experiment [1], the “CRF2R EC50” value was found to be 100 nM and the “CRF2R Emax” value turned out to be 34%. In addition, in experiment [2], the “CRF1R EC50” value stood at 100 nM and the “CRF1R Emax” value was 10%.

B13: SEQ ID NO 101 (peptide)
peptide: SQEPPISLDLPLYLLREVLEMTKADQLAQQAHSNRKLLDIA-NH2
With B13, in experiment [1], the “CRF2R EC50” value is 100 nM and the “CRF2R Emax” value was determined as 6.95%. In addition, in experiment [2], the “CRF1R EC50” value was 100 nM and the “CRF1R Emax” value is 7.35%.

B14: SEQ ID NO 95 (peptide)
peptide: SQEPPISLDLPLQLLREVLEMTKADQLAQQAHSNRKLLDIA-NH2
For the molecule B14, in experiment [1], the “CRF2R EC50” value was determined as 100 nM and the “CRF2R Emax” value was 8.25%. Moreover, in experiment [2], the “CRF1R EC50” value is 100 nM and the “CRF1R Emax” value is 5.55%.

B15: SEQ ID NO 94 (peptide)
peptide: SQEPPISLDLPIHLLREVLEMTKADQLAQQAHSNRKLLDIA-NH2
Regarding B15, in experiment [1], the “CRF2R EC50” value was 100 nM and the “CRF2R Emax” value was 6.15%. Also, in experiment [2], the “CRF1R EC50” value came out at 100 nM and the “CRF1R Emax” value came to 7.3%.

B16: SEQ ID NO 97 (peptide)
peptide: SQEPPISLDLPFELLREVLEMTKADQLAQQAHSNRKLLDIA-NH2
On to B16, for which, in experiment [1], the “CRF2R EC50” value was found to be 100 nM and the “CRF2R Emax” value stood at 7.6%. Moreover, in experiment [2], the “CRF1R EC50” value is 100 nM and the “CRF1R Emax” value came out at 4.25%.

B17: SEQ ID NO 102 (peptide)
peptide: SQEPPISLDLPLHLLREVLEMTKADQLAQQAHSNRKLLDIA-NH2
As for B17, in experiment [1], the “CRF2R EC50” value was 100 nM and the “CRF2R Emax” value was 13.5%. Also, in experiment [2], the “CRF1R EC50” value came out at 100 nM and the “CRF1R Emax” value amounted to 7.8%.

B18: SEQ ID NO 112 (peptide)
peptide: IVLSLDVPIGLLQILLEQAKAEAAREQATTNARILARV-NH2
Take B18: in experiment [1], the “CRF2R EC50” value turned out to be 12.3 nM and the “CRF2R Emax” value is 100%. In experiment [2], the “CRF1R EC50” value was more than 100 nM and the “CRF1R Emax” value was 10%.

B19: SEQ ID NO 7 (peptide)
peptide: SQEIVLSLDVPIGLLREVLEMTKADQLAQQAHSNRKLLDIA-NH2
B19: in experiment [1], the “CRF2R EC50” value came out at 100 nM and the “CRF2R Emax” value came out at 19%. In experiment [2], the “CRF1R EC50” value was determined as 100 nM and the “CRF1R Emax” value came out at 4%.

B20: SEQ ID NO 108 (peptide)
peptide: IVLSLDVPIGLLQILLEQTKADAAREQATTNARILARV-NH2
In the case of B20, in experiment [1], the “CRF2R EC50” value was 79 nM and the “CRF2R Emax” value amounted to 97%. In experiment [2], the “CRF1R EC50” value was more than 100 nM and the “CRF1R Emax” value amounted to 3%.

B21: SEQ ID NO 103 (peptide)
peptide: SQEPPISLDLPFGLLREVLEMTKADQLAQQAHSNRKLLDIA-NH2
Turning to B21, in experiment [1], the “CRF2R EC50” value turned out to be 100 nM and the “CRF2R Emax” value turned out to be 4.85%. For the same molecule, in experiment [2], the “CRF1R EC50” value is 100 nM and the “CRF1R Emax” value came out at 5.75%.

B22: SEQ ID NO 99 (peptide)
peptide: SQEPPISLDLPTHLLREVLEMTKADQLAQQAHSNRKLLDIA-NH2
Consider B22, for which, in experiment [1], the “CRF2R EC50” value came out at 100 nM and the “CRF2R Emax” value stood at 4.35%. Besides, in experiment [2], the “CRF1R EC50” value was 100 nM and the “CRF1R Emax” value was determined as 4.35%.

B23: SEQ ID NO 100 (peptide)
peptide: SQEPPISLDLPIQLLREVLEMTKADQLAQQAHSNRKLLDIA-NH2
Turning to B23, in experiment [1], the “CRF2R EC50” value is 100 nM and the “CRF2R Emax” value amounted to 9.85%. Also, in experiment [2], the “CRF1R EC50” value stood at 100 nM and the “CRF1R Emax” value was found to be 6.25%.
